Experiments:
[1] = system: PKCα; assay: PKCα translocation in HSG cells (immunofluorescence, fractionation); assay type: cell-based, human; conditions: 15 min after treatment
From the text: In order to dissect the molecular pathways leading to the cell survival by lacritin, protein kinases and transcriptional factors were studied by Western blotting and immunofluorescence microscopy.
Images were acquired at 2-3 s intervals using LaserSharp2000 software (Bio-Rad) and store on disc for later analysis.

[2] = system: NFATC1; assay: NFATC1 translocation in HSG cells (immunofluorescence); assay type: cell-based, human; conditions: HSG and corneal epithelial cells
From the text: In order to dissect the molecular pathways leading to the cell survival by lacritin, protein kinases and transcriptional factors were studied by Western blotting and immunofluorescence microscopy. […] On the other hand, there were increased activities of transcriptional factors such as nuclear factor of activated T-cells (NFAT) and NF-kappaB. In FIG. 4, translocation of PKC alpha and NFAT was detected by immunofluorescence coupled with confocal microscopic imaging. In resting HSG cells (left three images), PKC alpha distributes mainly in cytosol and membrane. Similarly, NFATc1 was also found to localize largely in cytosol. Cellular co-location of PKC alpha and NFATc1 is apparent upon merging the two immunofluorescent images, as the merged cy3 and FITC labels produce distinctive yellow color.
Images were acquired at 2-3 s intervals using LaserSharp2000 software (Bio-Rad) and store on disc for later analysis. For translocation assays, HSG cells […] phorbol 12-myristate 13-acetate, […], then washed with phosphate-buffered saline, formaldehyde-fixed, blocked with phosphate-buffered saline containing 1% bovine serum albumin and 10% goat serum, incubated with anti-PKCα (C-20) or anti-NFATC1 (mab 7A6) (both from Santa Cruz Biotechnology Inc.; Santa Cruz, Calif.) followed by secondary Cy3-, FITC- or Alexa488-labeled antibodies and confocal microscopic visualization (Bio-Rad Radiance2100).

[3] = system: human salivary ductal (HSG) cells; assay: 3H-thymidine uptake mitogenesis assay; assay type: cell-based; conditions: 10 nM; compared to intact lacritin
Method: (§1) For phosphotyrosine blotting and mitogenesis assays, cells in serum-containing media were seeded overnight in 24-well plates at a density of 0.5×10^5 cells/mm^2 corresponding to 20-30% confluency after cell attachment, incubated in serum-free media without supplements for 24 h (phosphotyrosine) or washed with serum-free media without supplements three times (mitogenesis) and incubated with lacritin (1-1000 nM), or positive controls EGF (1.6 nM) and 10% fetal bovine serum, or negative controls bovine serum albumin or no additive in serum-free media without supplements for the indicated times (phosphotyrosine) or 30 h (mitogenesis). For phosphotyrosine assays, cells were extracted in 1% NP40 containing sodium vanadate (2 mg/ml), DTT (5 mg/ml), protease inhibitors, 50 mM HEPES, 100 mM NaCl, and 2 mM EDTA; then separated by 10% SDS PAGE, transferred and blotted. The following antibodies (Cell Signaling Technology, Beverly Mass.) were tested: antiphosphotyrosine antibody (P-Tyr-100), anti-phospho-PKC αβII, anti-PKCα, anti-phospho-PKCδ, anti-phospho-PKC (pan), anti-p44/42 MAPK, anti-phospho-Raf, anti-phospho-SAPK/JNK, anti-phospho-p38 Map kinase, anti-phospho-Raf, anti-phospho-Akt, anti-phospho-CaMKII, anti-phospho-MARCKS, or anti-tubulin (loading control). After washing, bound antibodies were detected with peroxidase-labeled secondary antibody and ECL. With the exception of at least nine proteins in the P-Tyr-100 blot (FIG. 1), none of the effectors tested above appeared to be phospho-activated during lacritin signaling (not shown). For mitogenesis (Hussaini et al., '00), [^3H]-thymidine (2 mCi/ml) was added for the next 6 h. Incorporation was stopped with ice-cold phosphate buffered saline and followed by addition of cold and then room temperature trichloracetic acid (10%) for 10 min each, washing of cells with phosphate buffered saline, solubilization with 1 N sodium hydroxide, neutralization with 1 N hydrochloric acid, addition of scintillation fluid and then quantitation in a scintillation counter. To deplete PKCα in HSG cells, a pool of four PKCα-specific siRNAs (100 nM) were transfected via LipofectAMINE 2000 in Opti-MEMI Reduced Serum Medium (Invitrogen, Grand Island N.Y.) without serum and antibiotics according to manufacturer's instructions. Each of the four siRNAs was also individually transfected. In negative controls, cells were transfected with a pool of four lamin-specific siRNAs (Upstate LLC, Charlottesville Va.; Dharmacon Inc, Lafayette Colo.). Seventy-two hours post-transfection, mitogenesis was assessed by co-addition of 10 […] lacritin and [^3H]-thymidine (2 mCi/ml) (Amersham, Piscataway N.J.) for 24 hrs. PKCα depletion was confirmed by Western blotting.

[4] = system: PKCα; assay: Phospho-PKCα blot of HSG cell lysates; assay type: cell-based, human
Method: as §1
We imaged PKCα in cells 15 min after treatment (FIG. 8). Nonmitogenic construct/fragment C-25 (10 nM) had no effect, leaving PKCa diffusely distributed throughout the cytoplasm. […] The phosphorylation state of PKCα influences its translocation site. Hyperphosphorylated PKCα becomes associated with the plasma membrane whereas hypophosphorylated or dephosphorylated PKCα is known to translocate to the perinuclear Golgi region. To determine if the latter is true and if so over what time course, we treated cells with lacritin, N-24 and C-25, and then blotted cell lysates for phospho-PKC ? (FIG. 8B). 10 nM lacritin promotes PKC ? dephosphorylation within 1 min of addition. This form is sustained for at least 15 min, but by 30 min has returned to baseline phosphorylation. Dephosphorylation triggered by increasing molar levels of lacritin or N-24 mirrored the proliferation response with optimal dephosphorylation at 10 nM. Non-mitogenic C-25 had no effect, whereas positive control 4β-phorbol 12-myristate 13-acetate-promoted hyperphosphorylation.

[5] = system: human corneal epithelial (HCE) cell line; assay: TNF-α-induced cell death in HCE cells (MTT cell viability); assay type: cell-based; conditions: 18 or 30 hours; FIG. 10
Method: (§2) Lacritin-induced proliferation and calcium signaling was studied in the human corneal epithelial (HCE) cell line. HCE cells were grown at 37° C. in DMEM F/12 supplemented with 10% FBS and 50 μg/ml gentamicin. Each experiment was done in a dose- and time-dependent manner using TNF-α (5-20 ng/ml) and lacritin (1-10 nM). Cell viability was measured spectrophotometrically at an absorbance of 570 nm using the MTT assay. Caspase-8 activity was detected fluorometrically by measuring cleavage of the fluorogenic substrate IETD-pNA at an excitation wavelength of 405 nm. Lacritin-induced cell proliferation was studied by H3-thymidine incorporation and via fluorescence-based detection of PKC, PLC and cAMP. Calcium signaling was detected by confocal microscopy of Fluo-4 loaded cells.

[6] = system: caspase-3; assay: Caspase-3 activity in human corneal epithelial cells treated with TNF; assay type: cell-based; conditions: FIG. 11
Method: FIG. 11 graphically illustrates the ability of lacritin and fragments of lacritin to inhibit the ability of tumor necrosis factor (TNF) to regulate caspase-3 activity in human corneal epithelial cells. Go6976 is an inhibitor of protein kinase C. The ordinate represents relative fluorescence units. White bars indicate 3 hours and diagonally-hatched bars indicate 6 hours.
as §2

[7] = system: caspase-8; assay: Caspase-8 activity in human corneal epithelial cells treated with TNF-α; assay type: cell-based
Method: FIG. 12 graphically illustrates the ability of lacritin polypeptides to block TNFα induced caspase-8 activity in human corneal epithelial cells. The ordinate represents relative fluorescence units. White bars indicate 1 hour and diagonally-hatched bars indicate 6 hours.
as §2

[8] = system: caspase-9; assay: Caspase-9 activity in human corneal epithelial cells treated with TNF-α; assay type: cell-based; conditions: lacritin polypeptides 10 nM
Method: FIG. 13 graphically illustrates the ability of lacritin polypeptides (10 nM) to block TNFα induced caspase-9 activity in human corneal epithelial cells. The ordinate represents relative fluorescence units. White bars indicate 6 hours and diagonally-hatched bars indicate 9 hours.
Caspase-9 activity was measured in cells treated with various combinations of TNF-α, fragments of lacritin, and the PKC inhibitor Go6976. […] The PKC-α inhibitor Go6976 and C-25 fail to block this increase of the downstream initiator caspase-9.

[9] = system: MUC16; assay: MUC16 blot of human corneal epithelial cells; assay type: cell-based; conditions: 10 nM
From the text: MUC16 is an important mucin on the ocular surface. Mucin contributes to the tear film, is important for wetting the ocular surface, and is reduced in Sjogren's syndrome patients. […] Cells were blotted for MUC16.

Molecule	PKCα translocation [1]	NFATC1 translocation [2]	mitogenic activity of deletion constructs [3]	effect on PKCα phosphorylation [4]	protection from TNF-induced cell death (viability) [5]	protection from cell death by TNF (caspase-3 activity) [6]	effect on TNF-α-induced caspase-8 activity [7]	effect on TNF-α-induced caspase-9 activity [8]	MUC16 secretion [9]
C-25: deletion of the 25 carboxy terminal amino acids of mature lacritin (SEQ ID NO:10) (protein, homo sapiens) EDASSDSTGADPAQEAGTSKPNEEISGPAEPASPPETTTTAQETSAAAVQGTAKVTSSRQELNPLKSIVEKSILLTEQALAKAGKGMHGGVPGG	had no effect	had no effect	inactive	had no effect	no effect on viability loss	do not protect	fail to block	fail to block	inactive
C-5: deletion of the 5 carboxy terminal amino acids of mature lacritin (SEQ ID NO:10) (protein, listed as Homo sapiens) EDASSDSTGADPAQEAGTSKPNEEISGPAEPASPPETTTTAQETSAAAVQGTAKVTSSRQELNPLKSIVEKSILLTEQALAKAGKGMHGGVPGGKQFIENGSEFAQKLLKKFSL	–	–	active	–	protect	–	blocked	blocked	–
